This note sets out measurements from publication PMC2921665.

As a reminder, the Kd is a measure of binding affinity in units of concentration. Low values mean higher affinity, high ones lower affinity.

B1: GC-repeat spacer (dsDNA)
DNA 1: GATGCCTGCGGATACTGTGCGCGCGCACAGTATCAATTCTGGCT
DNA 2: AGCCAGAATTGATACTGTGCGCGCGCACAGTATCCGCAGGCATC
B2: +1 spacer (dsDNA)
DNA 1: GATGCCTGCGGATACTGTATATATAATACAGTATCAATTCTGGCT
DNA 2: AGCCAGAATTGATACTGTATTATATATACAGTATCCGCAGGCATC
B3: -1 spacer (dsDNA)
DNA 1: GATGCCTGCGGATACTGTATATATTACAGTATCAATTCTGGCT
DNA 2: AGCCAGAATTGATACTGTAATATATACAGTATCCGCAGGCATC
B4: RecA SOS box (dsDNA)
DNA 1: GATGCCTGCGGATACTGTATGATCATACAGTATCAATTCTGGCT
DNA 2: AGCCAGAATTGATACTGTATGATCATACAGTATCCGCAGGCATC
B5: TGC spacer (dsDNA)
DNA 1: GATGCCTGCGGATACTGTACGCGCGTACAGTATCAATTCTGGCT
DNA 2: AGCCAGAATTGATACTGTACGCGCGTACAGTATCCGCAGGCATC
B6: AT-repeat spacer (dsDNA)
DNA 1: GATGCCTGCGGATACTGTATATATATACAGTATCAATTCTGGCT
DNA 2: AGCCAGAATTGATACTGTATATATATACAGTATCCGCAGGCATC
B7: AT-GC spacer (dsDNA)
DNA 1: GATGCCTGCGGATACTGTATGCGCATACAGTATCAATTCTGGCT
DNA 2: AGCCAGAATTGATACTGTATGCGCATACAGTATCCGCAGGCATC
B8: A-tract spacer (dsDNA)
DNA 1: GATGCCTGCGGATACTGTAAAAAAAAACAGTATCAATTCTGGCT
DNA 2: AGCCAGAATTGATACTGTTTTTTTTTACAGTATCCGCAGGCATC

In one series the target is T1, LexA (EMSA protein) (Escherichia coli, UniProt P0A7C2 1-202, K156A). The series is described as follows: EMSA. In general terms: Mobility shift assays separate free from complexed probe on a gel.
B1 gave a Kd of around 100 nM.
The same measure, in the same setting: the same measure for B2: around 200 nM.
On the same count and under the same terms, to B3 belongs around 250 nM.

A further series has as its target T1, LexA (EMSA protein). The series is described as follows: EMSA. This is another data set of the same source.
Molecule B4 returned a Kd of 1.67 ± 0.26 nM.
The same measure, in the same setting: to B5 belongs 2.4 ± 0.5 nM.
Still for that read-out and setting: the same measure for B6: 0.8 ± 0.27 nM; for B7: 1.59 ± 0.3 nM.
Same read-out and setting: to B8 belongs 5.64 ± 0.78 nM.
